In paper PMC9352346:

Assays:
[1] = target: T1, GST-Smad4, Q13485; experiment: GST pull-down, immunoblot band quantification; conditions: chain shown with the change; HEK293T cell lysate; n=3; read off a plot
T1 chain: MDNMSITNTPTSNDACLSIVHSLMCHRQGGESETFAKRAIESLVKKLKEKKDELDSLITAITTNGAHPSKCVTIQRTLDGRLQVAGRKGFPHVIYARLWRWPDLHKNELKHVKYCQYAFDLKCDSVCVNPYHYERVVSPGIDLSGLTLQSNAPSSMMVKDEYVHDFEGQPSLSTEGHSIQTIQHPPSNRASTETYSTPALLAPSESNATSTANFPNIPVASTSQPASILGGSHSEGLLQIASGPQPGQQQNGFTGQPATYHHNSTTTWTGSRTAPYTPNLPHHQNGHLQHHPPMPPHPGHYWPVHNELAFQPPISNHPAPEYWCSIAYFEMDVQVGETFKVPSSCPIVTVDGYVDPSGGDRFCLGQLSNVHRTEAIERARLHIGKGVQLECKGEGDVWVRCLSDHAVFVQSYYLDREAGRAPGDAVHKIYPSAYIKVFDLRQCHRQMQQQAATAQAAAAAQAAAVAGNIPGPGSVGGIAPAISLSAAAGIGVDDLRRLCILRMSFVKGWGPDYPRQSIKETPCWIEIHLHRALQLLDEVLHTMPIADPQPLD

[2] = target: T2, GST-Smad4-MH2, Q13485; experiment: GST pull-down, immunoblot band quantification; conditions: chain shown with the change; HEK293T cell lysate; n=3; read off a plot
T2 chain: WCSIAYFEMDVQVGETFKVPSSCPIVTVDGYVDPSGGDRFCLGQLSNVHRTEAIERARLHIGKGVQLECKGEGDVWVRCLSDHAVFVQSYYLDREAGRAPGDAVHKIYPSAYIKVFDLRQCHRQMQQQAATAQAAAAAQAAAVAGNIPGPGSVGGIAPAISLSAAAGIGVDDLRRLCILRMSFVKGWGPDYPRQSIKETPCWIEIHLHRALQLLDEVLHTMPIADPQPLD

B1: Arl15-WT-GFP A86L (protein)
chain: MSDLRITEAFLYMDYLCFRALCCKGPPPARPEYDLVCIGLTGSGKTSLLSKLCSESPDNVVSTTGFSIKAVPFQNAILNVKELGGLDNIRKYWSRYYQGSQGVIFVLDSASSEDDLEAARNELHSALQHPQLCTLPFLILANHQDKPAARSVQEIKKYFELEPLARGKRWILQPCSLDDMDALKDSFSQLINLLEEKDHEAVRM
other: relative amount of Arl15-AL-GFP pulled down [1]: 1
other: relative amount of Arl15-AL-GFP pulled down [2]: 0.55
